Measurements from PMC5374532, “Rational mutagenesis by engineering disulphide bonds improves Kluyveromyces lactis beta-galactosidase for high-temperature industrial applications” (Scientific Reports, 2017).

Biological target: the molecule itself
Experiment: AUC; sedimentation velocity, 0.2 mg/mL enzyme, 50 mM Tris-HCl, 150 mM NaCl, pH 7.4, 48 k rpm, c(s) distribution (SEDFIT); self-association, shares of monomer, dimer, trimer and tetramer

B1: Kluyveromyces lactis β-galactosidase (enzyme, UniProt P00723 2-1025, looked up)
chain: SCLIPENLRNPKKVHENRLPTRAYYYDQDIFESLNGPWAFALFDAPLDAPDAKNLDWETAKKWSTISVPSHWELQEDWKYGKPIYTNVQYPIPIDIPNPPTVNPTGVYARTFELDSKSIESFEHRLRFEGVDNCYELYVNGQYVGFNKGSRNGAEFDIQKYVSEGENLVVVKVFKWSDSTYIEDQDQWWLSGIYRDVSLLKLPKKAHIEDVRVTTTFVDSQYQDAELSVKVDVQGSSYDHINFTLYEPEDGSKVYDASSLLNEENGNTTFSTKEFISFSTKKNEETAFKINVKAPEHWTAENPTLYKYQLDLIGSDGSVIQSIKHHVGFRQVELKDGNITVNGKDILFRGVNRHDHHPRFGRAVPLDFVVRDLILMKKFNINAVRNSHYPNHPKVYDLFDKLGFWVIDEADLETHGVQEPFNRHTNLEAEYPDTKNKLYDVNAHYLSDNPEYEVAYLDRASQLVLRDVNHPSIIIWSLGNEACYGRNHKAMYKLIKQLDPTRLVHYEGDLNALSADIFSFMYPTFEIMERWRKNHTDENGKFEKPLILCEYGHAMGNGPGSLKEYQELFYKEKFYQGGFIWEWANHGIEFEDVSTADGKLHKAYAYGGDFKEEVHDGVFIMDGLCNSEHNPTPGLVEYKKVIEPVHIKIAHGSVTITNKHDFITTDHLLFIDKDTGKTIDVPSLKPEESVTIPSDTTYVVAVLKDDAGVLKAGHEIAWGQAELPLKVPDFVTETAEKAAKINDGKRYVSVESSGLHFILDKLLGKIESLKVKGKEISSKFEGSSITFWRPPTNNDEPRDFKNWKKYNIDLMKQNIHGVSVEKGSNGSLAVVTVNSRISPVVFYYGFETVQKYTIFANKINLNTSMKLTGEYQPPDFPRVGYEFWLGDSYESFEWLGRGPGESYPDKKESQRFGLYDSKDVEEFVYDYPQENGNHTDTHFLNIKFEGAGKLSIFQKEKPFNFKISDEYGVDEAAHACDVKRYGRHYLRLDHAIHGVGSEACGPAVLDQYRLKAQDFNFEFDLAFE
notes: β-galactosidase of Kluyveromyces lactis, LAC4 gene (Gene ID 2897170), amplified from plasmid pLX8 and cloned in YEpFLAG; Monomer 118 kDa as printed; also called Kl-β-Gal; native Kl-β-Gal; not shown: FLAG, N-terminal, kept
Question: How did the “stoichiometry N” value turn out when B1 was run?
Answer: The value was 2.
